Target: recombinant EGFR-Fc (AcroBiosystems) (human) (UniProt P00533)
Test: BLI (Octet QK), biotinylated binder on streptavidin sensor, EGFR-Fc 0-100 nM, 1:1 global fit

Kd: 3.2 nM
Substance: AFF.EGFR (Z domain-based EGFR-binding affibody ZEGFR:1907) (designed binder)

— patent US20220064326A1
